Source: article PMC6061855 (Nucleic Acids Research, 2018)

B1: Full-length E. coli RppH (RNA pyrophosphohydrolase) (enzyme, UniProt P0A776 1-176, looked up)
chain: MIDDDGYRPNVGIVICNRQGQVMWARRFGQHSWQFPQGGINPGESAEQAMYRELFEEVGLSRKDVRILASTRNWLRYKLPKRLVRWDTKPVCIGQKQKWFLLQLVSGDAEINMQTSSTPEFDGWRWVSYWYPVRQVVSFKRDVYRRVMKEFASVVMSLQENTPKPQNASAYRRKRG

What was measured:
[1] = target: His6-SUMO-DapF (E. coli DapF with uncleaved N-terminal hexahistidine and SUMO tags) (E. coli) (UniProt P0A6K1); test: BLI
[2] = target: T1, DapFm (E. coli DapF with Y268A and R36A mutations) (E. coli, UniProt P0A6K1 1-274, Y268A | R36A)
T1 sequence: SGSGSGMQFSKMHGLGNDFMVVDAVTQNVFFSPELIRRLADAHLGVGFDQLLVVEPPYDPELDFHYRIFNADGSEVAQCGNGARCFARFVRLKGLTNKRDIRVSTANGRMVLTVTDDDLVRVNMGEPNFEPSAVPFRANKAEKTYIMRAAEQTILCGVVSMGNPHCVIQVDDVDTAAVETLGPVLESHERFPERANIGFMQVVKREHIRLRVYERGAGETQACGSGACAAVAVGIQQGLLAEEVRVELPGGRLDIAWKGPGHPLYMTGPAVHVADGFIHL

[3] = target: T2, His6-SUMO-DapF (E. coli DapF with uncleaved N-terminal hexahistidine and SUMO tags) (E. coli, UniProt P0A6K1 1-274); test: cross-linking
T2 sequence: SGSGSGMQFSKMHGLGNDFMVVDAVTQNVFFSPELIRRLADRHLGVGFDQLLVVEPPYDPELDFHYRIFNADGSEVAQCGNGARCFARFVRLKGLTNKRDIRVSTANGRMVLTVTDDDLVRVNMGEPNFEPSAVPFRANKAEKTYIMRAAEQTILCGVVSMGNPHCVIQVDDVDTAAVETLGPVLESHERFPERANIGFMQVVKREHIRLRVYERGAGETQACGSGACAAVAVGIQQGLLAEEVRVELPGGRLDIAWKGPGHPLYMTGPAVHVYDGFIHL

[4] = target: T1, DapFm (E. coli DapF with Y268A and R36A …); test: BLI
[5] = target: T3, RppHt;DapFm (Escherichia coli;Escherichia coli, UniProt P0A776;P0A6K1 1-158;1-274, |R36A;Y268A); test: X-ray crystallography
T3 sequence 1: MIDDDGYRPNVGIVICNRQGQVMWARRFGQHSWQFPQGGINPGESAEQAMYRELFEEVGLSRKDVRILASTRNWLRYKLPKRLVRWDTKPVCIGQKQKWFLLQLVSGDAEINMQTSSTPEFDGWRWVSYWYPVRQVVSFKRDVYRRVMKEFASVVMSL
T3 sequence 2: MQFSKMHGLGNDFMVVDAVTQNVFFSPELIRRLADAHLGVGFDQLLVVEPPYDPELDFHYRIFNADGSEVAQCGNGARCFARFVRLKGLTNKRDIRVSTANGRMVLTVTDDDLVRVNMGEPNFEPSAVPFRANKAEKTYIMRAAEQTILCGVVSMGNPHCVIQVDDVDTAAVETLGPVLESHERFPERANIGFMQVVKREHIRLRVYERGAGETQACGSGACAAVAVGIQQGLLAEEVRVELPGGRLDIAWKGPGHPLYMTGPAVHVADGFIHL

[6] = target: EcRppH(1–158)AA, truncated variant of E. coli RppH (E. coli) (UniProt P0A776); test: BLI
[7] = target: T4, RppH^R134A (E. coli RppH mutant), His6-SUMO-tagged (E. coli, UniProt P0A776 1-176, R134A); test: BLI
T4 sequence (looked up): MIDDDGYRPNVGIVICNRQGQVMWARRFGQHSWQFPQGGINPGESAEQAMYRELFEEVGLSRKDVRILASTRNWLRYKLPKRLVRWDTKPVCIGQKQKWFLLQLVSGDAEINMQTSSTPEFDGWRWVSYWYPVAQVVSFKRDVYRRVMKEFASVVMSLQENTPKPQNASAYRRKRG

[8] = target: B1; test: BLI
[9] = target: T5, His6-SUMO-tagged E. coli RppH (E. coli, UniProt P0A776 1-176); test: BLI
T5 sequence (looked up): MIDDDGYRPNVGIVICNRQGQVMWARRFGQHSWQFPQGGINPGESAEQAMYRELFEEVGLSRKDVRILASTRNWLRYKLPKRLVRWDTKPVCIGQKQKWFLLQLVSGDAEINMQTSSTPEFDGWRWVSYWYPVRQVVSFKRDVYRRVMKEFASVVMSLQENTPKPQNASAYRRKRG

Molecule: RppH^W130A,R145A (E. coli RppH double mutant) (from UniProt P0A776 1-176) (enzyme)
- Kd [1]: 1900 nM

Molecule: B1
- stoichiometry N [2]: 1 RppH per DapFm (printed as 1:1)
- stoichiometry N [3]: 1 RppH per DapF (printed as 2:2)
- Kd [4]: 7.5 nM

B2: ppcpAGU (ssRNA)
RNA: AGU
modifications: 5' triphosphate analog ppcpA (non-natural bridging group, from ppcpA starter nucleotide)
- binding result [5]: binds

B3: DapFm (E. coli DapF with Y268A and R36A mutations) (enzyme)
chain: SGSGSGMQFSKMHGLGNDFMVVDAVTQNVFFSPELIRRLADAHLGVGFDQLLVVEPPYDPELDFHYRIFNADGSEVAQCGNGARCFARFVRLKGLTNKRDIRVSTANGRMVLTVTDDDLVRVNMGEPNFEPSAVPFRANKAEKTYIMRAAEQTILCGVVSMGNPHCVIQVDDVDTAAVETLGPVLESHERFPERANIGFMQVVKREHIRLRVYERGAGETQACGSGACAAVAVGIQQGLLAEEVRVELPGGRLDIAWKGPGHPLYMTGPAVHVADGFIHL
- Kd [6]: 6 nM

B4: E. coli DapF (diaminopimelate epimerase) bearing six additional residues (SGSGSG) at the amino terminus (enzyme)
chain: SGSGSGMQFSKMHGLGNDFMVVDAVTQNVFFSPELIRRLADRHLGVGFDQLLVVEPPYDPELDFHYRIFNADGSEVAQCGNGARCFARFVRLKGLTNKRDIRVSTANGRMVLTVTDDDLVRVNMGEPNFEPSAVPFRANKAEKTYIMRAAEQTILCGVVSMGNPHCVIQVDDVDTAAVETLGPVLESHERFPERANIGFMQVVKREHIRLRVYERGAGETQACGSGACAAVAVGIQQGLLAEEVRVELPGGRLDIAWKGPGHPLYMTGPAVHVYDGFIHL
- fold reduction of the binding affinity against wild-type RppH [7]: 2 fold

B5: DapF V19S-F58S (E. coli DapF double mutant) (enzyme)
chain: SGSGSGMQFSKMHGLGNDFMVVDASTQNVFFSPELIRRLADRHLGVGFDQLLVVEPPYDPELDSHYRIFNADGSEVAQCGNGARCFARFVRLKGLTNKRDIRVSTANGRMVLTVTDDDLVRVNMGEPNFEPSAVPFRANKAEKTYIMRAAEQTILCGVVSMGNPHCVIQVDDVDTAAVETLGPVLESHERFPERANIGFMQVVKREHIRLRVYERGAGETQACGSGACAAVAVGIQQGLLAEEVRVELPGGRLDIAWKGPGHPLYMTGPAVHVYDGFIHL
- fold reduction of the binding affinity against wild-type DapF [8]: 59 fold

B6: DapF V19S-L89S (E. coli DapF double mutant) (enzyme)
chain: SGSGSGMQFSKMHGLGNDFMVVDASTQNVFFSPELIRRLADRHLGVGFDQLLVVEPPYDPELDFHYRIFNADGSEVAQCGNGARCFARFVRLKGSTNKRDIRVSTANGRMVLTVTDDDLVRVNMGEPNFEPSAVPFRANKAEKTYIMRAAEQTILCGVVSMGNPHCVIQVDDVDTAAVETLGPVLESHERFPERANIGFMQVVKREHIRLRVYERGAGETQACGSGACAAVAVGIQQGLLAEEVRVELPGGRLDIAWKGPGHPLYMTGPAVHVYDGFIHL
- fold reduction of the binding affinity against wild-type DapF [8]: 77 fold

B7: DapF F58S-L89S (E. coli DapF double mutant) (enzyme)
chain: SGSGSGMQFSKMHGLGNDFMVVDAVTQNVFFSPELIRRLADRHLGVGFDQLLVVEPPYDPELDSHYRIFNADGSEVAQCGNGARCFARFVRLKGSTNKRDIRVSTANGRMVLTVTDDDLVRVNMGEPNFEPSAVPFRANKAEKTYIMRAAEQTILCGVVSMGNPHCVIQVDDVDTAAVETLGPVLESHERFPERANIGFMQVVKREHIRLRVYERGAGETQACGSGACAAVAVGIQQGLLAEEVRVELPGGRLDIAWKGPGHPLYMTGPAVHVYDGFIHL
- fold reduction of the binding affinity against wild-type DapF [8]: 290 fold

B8: DapF^V19S,F58S,L89S (E. coli DapF triple mutant) (enzyme)
chain: SGSGSGMQFSKMHGLGNDFMVVDASTQNVFFSPELIRRLADRHLGVGFDQLLVVEPPYDPELDSHYRIFNADGSEVAQCGNGARCFARFVRLKGSTNKRDIRVSTANGRMVLTVTDDDLVRVNMGEPNFEPSAVPFRANKAEKTYIMRAAEQTILCGVVSMGNPHCVIQVDDVDTAAVETLGPVLESHERFPERANIGFMQVVKREHIRLRVYERGAGETQACGSGACAAVAVGIQQGLLAEEVRVELPGGRLDIAWKGPGHPLYMTGPAVHVYDGFIHL
- fold decrease of binding against wild-type DapF [9]: ~5800 fold
